This note sets out measurements from publication doi:10.1101/436014, “Human telomere repeat binding factor TRF1 replaces TRF2 bound to shelterin core hub TIN2 when TPP1 is absent” (bioRxiv, 2018).

In data set [1] the target is T1, Telomere Repeat-binding Factor 1 (TRF1), full-length human (human, UniProt P54274 1-439, Alexa Fluor 594 or Alexa Fluor 488 label where used labeled (site not stated); unlabeled where used as competitor and in MST).
T1 construct: TRF1, human, full-length; Removal of the His tag is not mentioned
T1 sequence (looked up): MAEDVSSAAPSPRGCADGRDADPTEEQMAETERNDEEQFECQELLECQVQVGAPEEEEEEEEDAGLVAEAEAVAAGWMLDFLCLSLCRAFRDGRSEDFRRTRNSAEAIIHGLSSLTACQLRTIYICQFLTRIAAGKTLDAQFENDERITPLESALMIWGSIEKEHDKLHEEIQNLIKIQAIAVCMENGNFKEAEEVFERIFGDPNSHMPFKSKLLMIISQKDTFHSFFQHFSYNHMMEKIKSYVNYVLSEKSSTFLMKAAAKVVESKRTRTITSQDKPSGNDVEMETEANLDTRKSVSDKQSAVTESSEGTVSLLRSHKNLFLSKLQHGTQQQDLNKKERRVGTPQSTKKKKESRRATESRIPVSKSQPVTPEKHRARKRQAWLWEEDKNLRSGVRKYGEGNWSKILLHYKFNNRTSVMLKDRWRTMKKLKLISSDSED
Briefly: MST; Alexa Fluor 488 labeled TIN2 incubated with different concentrations of TRF1 or TRF2; 50 mM sodium phosphate pH 7.0, 50 mM NaCl; 12 °C; apparent KD. The conditions noted are these: both partners purified.

Data set [2] has as its target T2, Telomere Repeat-binding Factor 2 (TRF2), full-length human (human, UniProt Q15554 1-542, Alexa Fluor 594 or Alexa Fluor 488 label where used labeled (site not stated); unlabeled where used as competitor and in MST).
T2 construct: TRF2, human, full-length; Removal of the His tag is not mentioned
T2 sequence (looked up): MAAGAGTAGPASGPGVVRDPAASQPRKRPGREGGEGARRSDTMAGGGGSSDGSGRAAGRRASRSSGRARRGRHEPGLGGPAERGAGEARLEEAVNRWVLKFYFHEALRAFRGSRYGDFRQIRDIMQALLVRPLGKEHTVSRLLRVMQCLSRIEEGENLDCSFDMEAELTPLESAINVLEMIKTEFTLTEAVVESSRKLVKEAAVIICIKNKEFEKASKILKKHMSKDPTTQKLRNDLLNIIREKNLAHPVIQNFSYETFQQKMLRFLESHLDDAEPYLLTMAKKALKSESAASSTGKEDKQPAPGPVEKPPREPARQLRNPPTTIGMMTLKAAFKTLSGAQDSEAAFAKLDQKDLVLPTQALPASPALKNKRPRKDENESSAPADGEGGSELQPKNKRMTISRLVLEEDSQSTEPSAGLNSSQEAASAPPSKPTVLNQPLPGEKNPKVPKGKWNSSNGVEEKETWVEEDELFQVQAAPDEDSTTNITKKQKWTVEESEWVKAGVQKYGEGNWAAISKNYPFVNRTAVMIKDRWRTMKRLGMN
The description is as above. The conditions noted are these: both partners purified.

The target of a further data set is TRF1;TIN2 (human;human, UniProt P54274;Q9BSI4 1-439;1-451, |). The experiment in a line: fluorescence anisotropy; TRF1 5 uM:TIN2 2.5 uM (2:1) stock titrated into 7.5 nM DNA; KD only in figure; 50 mM sodium phosphate pH 7.0, 50 mM NaCl, 25 C; 7.5 nM Alexa Fluor 488-labeled DNA; 2 min incubation per titration step. The conditions noted are these: protein: recombinant;recombinant; chain copies: 2;1; (described only as annealed with its complementary strand). For orientation: In fluorescence polarisation assays a small probe gives low polarisation when free and higher when bound to something large.

B1: TRF1-Interacting Nuclear factor 2 (TIN2), full-length human (natural protein)
chain: ATPLVAGPAALRFAAAASWQVVRGRCVEHFPRVLEFLRSLRAVAPGLVRYRHHERLCMGLKAKVVVELILQGRPWAQVLKALNHHFPESGPIVRDPKATKQDLRKILEAQETFYQQVKQLSEAPVDLASKLQELEQEYGEPFLAAMEKLLFEYLCQLEKALPTPQAQQLQDVLSWMQPGVSITSSLAWRQYGVDMGWLLPECSVTDSVNLAEPMEQNPPQQQRLALHNPLPKAKPGTHLPQGPSSRTHPEPLAGRHFNLAPLGRRRVQSQWASTRGGHKERPTVMLFPFRNLGSPTQVISKPESKEEHAIYTADLAMGTRAASTGKSKSPCQTLGGRALKENPVDLPATEQKENCLDCYMDPLRLSLLPPRARKPVCPPSLCSSVITIGDLVLDSDEEENGQGEGKESLENYQKTKFDTLIPTLCEYLPPSGHGAIPVSSCDCRDSSRPL
modifications: Alexa Fluor 488 label where used labeled (site not stated); unlabeled in the TRF1/TRF2 cross-correlation experiment and in SEC
Regarding B1, the Kd in data set [1] stood at 240 nM; in data set [2] it was 360 nM.

B2: R5 telomeric duplex (five repeats) (dsDNA)
DNA 1: GTTAGGGTTAGGGTTAGGGTTAGGGTTAGGGTTAG
DNA 2: CTAACCCTAACCCTAACCCTAACCCTAACCCTAAC
For B2, in the data set with TRF1;TIN2, the binding result is on record as “binds”.
